For data set [1], the target named is NCAM on cells (primary hippocampal neurones; NCAM-140 on transfected fibroblasts) (rat) (UniProt P13596). The data set can be described thus: cell-based or functional assay.
The target of data set [2] is NCAM Ig2 domain, recombinant, produced in Pichia pastoris (rat) (UniProt P13596). The data set can be described thus: NMR titration, 14 points, 15N-labelled domain-2 (1.0 mM) titrated with unlabelled domain-1, chemical shifts of 10 residues fitted.
Data set [3] concerns the molecule itself. The data set can be described thus: gel filtration chromatography, self-association.

Numbering of substitutions follows the chain as printed. Names and notes keep the numbering of the source.

In data set [1], “NCAM Ig2 domain, recombinant, produced in Pichia pastoris (from UniProt P13596 117-208) (ligand)” had a concentration of maximal neuritogenic effect, primary hippocampal neurones on fibronectin of 0.54 µM.
As to “NCAM Ig1 domain, recombinant, produced in Pichia pastoris (Ig1 PP) (from UniProt P13596 20-116) (receptor)”, in data set [2], the Kd stood at 2.5 mM.

B1: NCAM (20-208) with three mutations in the domain-1 E30A, E35A, K37A (receptor, UniProt P13596 20-208, looked up)
chain: LQVDIVPSQGAISVGASAFFLCQVAGDAKDKDISWFSPNGEKLSPNQQRISVVWNDDDSSTLTIYNANIDDAGIYKCVVTAEDGTQSEATVNVKIFQKLMFKNAPTPQEFKEGEDAVIVCDVVSSLPPTIIWKHKGRDVILKKDVRFIVLSNNYLQIRGIKKTDEGTYRCEGRILARGEINFKDIQVIV
notes: Species as for m28; also called first mutant
Consider B1, for which the binding result in data set [3] is on record as “no binding”.

B2: NCAM (20-208) with three mutations in the domain-2 R192A, R196A, E198A (receptor, UniProt P13596 20-208, looked up)
chain: B1 chain with A11E, A16E, A18K, R173A, R177A, E179A
notes: Species as for m28; also called second mutant; mutated double domain
On to B2, for which the binding result in data set [3] was “no binding”.

B3: NCAM (20-208) with three mutations in the domain-1 E30A, E35A, K37A and three mutations in the domain-2 R192A, R196A, E198A (receptor, UniProt P13596 20-208, looked up)
chain: B1 chain with R173A, R177A, E179A
notes: Species as for m28; also called third mutant
B3: the binding result in data set [3] is recorded as “no binding”.

(Values after patent US6887844 (dated 2005).)
